{
  "source": "patent US12458630",
  "about": "(University of California, dated 2025)",
  "binders": {"B1": {"name": "IKKα W651A-Flag (LIR-mutated IKKα) (enzyme)", "chain": "MERPPGLRPGAGGPWEMRERLGTGGFGNVCLYQHRELDLKIAIKSCRLELSTKNRERWCHEIQIMKKLNHANVVKACDVPEELNILIHDVPLLAMEYCSGGDLRKLLNKPENCCGLKESQILSLLSDIGSGIRYLHENKIIHRDLKPENIVLQDVGGKIIHKIIDLGYAKDVDQGSLCTSFVGTLQYLAPELFENKPYTATVDYWSFGTMVFECIAGYRPFLHHLQPFTWHEKIKKKDPKCIFACEEMSGEVRFSSHLPQPNSLCSLVVEPMENWLQLMLNWDPQQRGGPVDLTLKQPRCFVLMDHILNLKIVHILNMTSAKIISFLLPPDESLHSLQSRIERETGINTGSQELLSETGISLDPRKPASQCVLDGVRGCDSYMVYLFDKSKTVYEGPFASRSLSDCVNYIVQDSKIQLPIIQLRKVWAEAVHYVSGLKEDYSRLFQGQRAAMLSLLRYNANLTKMKNTLISASQQLKAKLEFFHKSIQLDLERYSEQMTYGISSEKMLKAWKEMEEKAIHYAEVGVIGYLEDQIMSLHAEIMELQKSPYGRRQGDLMESLEQRAIDLYKQLKHRPSDHSYSDSTEMVKIIVHTVQSQDRVLKELFGHLSKLLGCKQKIIDLLPKVEVALSNIKEADNTVMFMQGKRQKEIAHLLKIACTQSSARSLVGSSLEGAVTPQTSAWLPPTSAEHDHSLSCVVTPQDGETSAQMIEENLNCLGHLSTIIHEANEEQGNSMMNLDWSWLTE", "notes": "also called LIR-mutated IKKα variant; pCDH-CMV-MCS-EF1-Puro-IKKα W651A-Flag; not shown: Flag tag"}, "B2": {"name": "IKKα Y568A-Flag (LIR-mutated IKKα) (enzyme)", "chain": "MERPPGLRPGAGGPWEMRERLGTGGFGNVCLYQHRELDLKIAIKSCRLELSTKNRERWCHEIQIMKKLNHANVVKACDVPEELNILIHDVPLLAMEYCSGGDLRKLLNKPENCCGLKESQILSLLSDIGSGIRYLHENKIIHRDLKPENIVLQDVGGKIIHKIIDLGYAKDVDQGSLCTSFVGTLQYLAPELFENKPYTATVDYWSFGTMVFECIAGYRPFLHHLQPFTWHEKIKKKDPKCIFACEEMSGEVRFSSHLPQPNSLCSLVVEPMENWLQLMLNWDPQQRGGPVDLTLKQPRCFVLMDHILNLKIVHILNMTSAKIISFLLPPDESLHSLQSRIERETGINTGSQELLSETGISLDPRKPASQCVLDGVRGCDSYMVYLFDKSKTVYEGPFASRSLSDCVNYIVQDSKIQLPIIQLRKVWAEAVHYVSGLKEDYSRLFQGQRAAMLSLLRYNANLTKMKNTLISASQQLKAKLEFFHKSIQLDLERYSEQMTYGISSEKMLKAWKEMEEKAIHYAEVGVIGYLEDQIMSLHAEIMELQKSPYGRRQGDLMESLEQRAIDLAKQLKHRPSDHSYSDSTEMVKIIVHTVQSQDRVLKELFGHLSKLLGCKQKIIDLLPKVEVALSNIKEADNTVMFMQGKRQKEIWHLLKIACTQSSARSLVGSSLEGAVTPQTSAWLPPTSAEHDHSLSCVVTPQDGETSAQMIEENLNCLGHLSTIIHEANEEQGNSMMNLDWSWLTE", "notes": "also called LIR-mutated IKKα variant; pCDH-CMV-MCS-EF1-Puro-IKKα Y568A-Flag; not shown: Flag tag"}, "B3": {"name": "endogenous syntaxin 17 (STX17) of MIA PaCa-2 cells (other, human, UniProt P56962 2-302, looked up)", "chain": "SEDEEKVKLRRLEPAIQKFIKIVIPTDLERLRKHQINIEKYQRCRIWDKLHEEHINAGRTVQQLRSNIREIEKLCLKVRKDDLVLLKRMIDPVKEEASAATAEFLQLHLESVEELKKQFNDEETLLQPPLTRSMTVGGAFHTTEAEASSQSLTQIYALPEIPQDQNAAESWETLEADLIELSQLVTDFSLLVNSQQEKIDSIADHVNSAAVNVEEGTKNLGKAAKYKLAALPVAGALIGGMVGGPIGLLAGFKVAGIAAALGGGVLGFTGGKLIQRKKQKMMEKLTSSCPDLPSQTDKKCS", "notes": "also called endogenous STX17"}},
  "key": {"[1]": {"biological_target": "B3", "assay": "co-IP with STX17, IKKα-ablated MIA PaCa-2 cells re-expressing wt IKKα (FIG. 14D)"}, "[2]": {"biological_target": "endogenous LC3 (microtubule-associated protein light chain 3) of MIA PaCa-2 cells (human, UniProt Q9GZQ8 1-120)", "assay": "co-IP in starved IKKα-ablated MIA PaCa-2 cells (FIG. 14C)"}, "[3]": {"biological_target": "B2", "assay": "co-IP in starved IKKα-ablated MIA PaCa-2 cells (FIG. 14C)"}, "[4]": {"biological_target": "B1", "assay": "co-IP in starved IKKα-ablated MIA PaCa-2 cells (FIG. 14C)"}},
  "data": [
    {"binder": "endogenous VAMP8 of MIA PaCa-2 cells (other, human, UniProt Q9BV40 1-100, looked up) MEEASEGGGNDRVRNLQSEVEGVKNIMTQNVERILARGENLEHLRNKTEDLEATSEHFKTTSQKVARKFWWKNVKMIVLICVIVFIIILFIVLFATGAFS", "values": [
      {"measurement": "binding result", "setting": "[1]", "value": "binds"}
    ]},
    {"binder": "B1", "values": [
      {"measurement": "binding result", "setting": "[2]", "value": "no binding"}
    ]},
    {"binder": "B2", "values": [
      {"measurement": "binding result", "setting": "[2]", "value": "no binding"}
    ]},
    {"binder": "B3", "values": [
      {"measurement": "binding result", "setting": "[3]", "value": "no binding"},
      {"measurement": "binding result", "setting": "[4]", "value": "no binding"}
    ]}
  ]
}
